Source: the supplement of paper PMC10126150
± gives the standard deviation of the averaged measurements.

tested on: ATP; experiment: switch fluorescence ratio, 500 uM ATP over buffer (Cy3 cluster intensity, sum of 5 cycles each) (fold (ratio)); higher = stronger signal-on switching upon ATP binding; sequences stand for … in TCGTCGGCAGCGTCAGATGTGTATAAGAGACAGTTTTTTTTTTTTTTTTTTTTTTTTT…TC; conditions: aptamer strand: ATP DNA aptamer (quencher-CACCTGGGGGAGTATTGCGGAGGAAGG + anchor), 100 nM annealed; ATP concentration: 500 uM
Outline: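 The fluorescence ratio divides summed target-cycle Cy3 intensity by summed buffer-cycle Cy3 intensity for each cluster and is averaged per switch-domain sequence. Cy3-labelled switching-strand clusters on a modified Illumina MiSeq flow-cell were annealed to 100 nM quencher-labelled ATP aptamer, then imaged in selection buffer and again after 15 min with 500 uM ATP at 22 °C. Five such cycles were run, with NaOH stripping and re-annealing between them, and clusters outside 100-1000 RFU were excluded.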
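Also: ATP exposure 15 min at 22 °C before imaging.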

Sequence	switch fluorescence ratio
GTCGATGGGG	0.969 ± 0.014
GTCGATGGTG	1 ± 0.016
GTCGCGGCGA	0.9664 ± 0.006
GTCGCGGGGG	1.04 ± 0.071
GTCGGACCCG	0.973 ± 0.019
GTCGGGCCCG	1.01 ± 0.06
GTCGGGCGTA	0.991 ± 0.016
GTCGGGGGGC	0.985 ± 0.021
GTCGGGGGGT	1 ± 0.025
GTCGGTAGGT	1 ± 0.032
GTCGTCCTGT	0.9884 ± 0.0083
GTCGTTGCCT	0.99139 ± 0.00027
GTCGTTGGTG	1 ± 0.056
GTCGTTTAAA	0.9898 ± 0.0062
GTCTAAAATC	0.978 ± 0.038
GTCTAAGAGT	0.9786 ± 0.0048
GTCTAAGTGC	0.996 ± 0.011
GTCTAATATG	0.9716 ± 0.0048
GTCTAATCAT	0.967 ± 0.019
GTCTCATCAC	1.01 ± 0.056
GTCTCTTAGG	1.01 ± 0.014
GTCTCTTCAT	0.986 ± 0.026
GTCTGATTTA	1.01 ± 0.011
GTCTTAGGTC	1 ± 0.035
GTCTTGGGTG	1.02 ± 0.019

Sequence	switch fluorescence ratio
GTCTTGGTTC	0.9721 ± 0.0084
GTCTTTAGGG	0.9755 ± 0.0055
GTCTTTTGTG	1.31 ± 0.43
GTGAAGGTCG	0.927 ± 0.022
GTGAATAGTT	0.995 ± 0.032
GTGAATGCTG	0.938 ± 0.048
GTGACAAAAA	1.027 ± 0.0026
GTGACCGTGT	1 ± 0.053
GTGACGAAGA	1.033 ± 0.0065
GTGACGATGT	1.01 ± 0.0071
GTGACGGGGC	1.02 ± 0.058
GTGAGAAGAA	0.97 ± 0.01
GTGAGAGAGT	0.962 ± 0.015
GTGAGCCGTT	1.04 ± 0.025
GTGAGGATGG	0.978 ± 0.012
GTGAGGATTG	0.98581 ± 8e-05
GTGAGGGGCT	0.977 ± 0.04
GTGAGGGGGG	1.01 ± 0.013
GTGAGGGTGG	0.9695 ± 0.0093
GTGAGGTATC	1.04 ± 0.032
GTGAGGTCGG	0.968 ± 0.015
GTGAGTAGGT	0.974 ± 0.014
GTGAGTCAGC	1.06 ± 0.075
GTGAGTTTGT	1.01 ± 0.027
GTGATAAAAT	1.01 ± 0.031

Sequence	switch fluorescence ratio
GTGATACAAA	0.999 ± 0.022
GTGATCCCCG	1.006 ± 0.0041
GTGATGACTT	1.001 ± 0.0061
GTGATGGATG	0.997 ± 0.057
GTGATGGTTT	0.982 ± 0.013
GTGATGTCTC	1.008 ± 0.0091
GTGATTATGG	0.981 ± 0.028
GTGATTTGCG	1.008 ± 0.0036
GTGATTTGT	1.01 ± 0.03
GTGATTTTCT	0.998 ± 0.015
GTGCAATGGC	1.57 ± 0.18
GTGCCAACGT	0.981 ± 0.035
GTGCCCTGTA	0.9704 ± 0.0046
GTGCGAATGG	0.998 ± 0.016
GTGCTAGCTC	1.004 ± 0.0034
GTGCTAGGTT	0.984 ± 0.023
GTGCTTAGGC	1.06 ± 0.026
GTGCTTGGGC	0.9955 ± 0.0058
GTGCTTGGGG	0.99 ± 0.044
GTGGAAAAAA	1 ± 0.02
GTGGAAAGAT	1.01 ± 0.018
GTGGAAGGTA	0.991 ± 0.011
GTGGAATGGT	0.986 ± 0.024
GTGGACAGGG	1 ± 0.013
GTGGAGGCGC	0.989 ± 0.023

Sequence	switch fluorescence ratio
GTGGAGTTGG	1.31 ± 0.44
GTGGATAAAA	0.972 ± 0.029
GTGGATATTT	0.986 ± 0.015
GTGGATGTAC	1.06 ± 0.05
GTGGATTGCG	0.9975 ± 0.0075
GTGGCAAAGT	0.9678 ± 9.7e-05
GTGGCACTGT	0.989 ± 0.019
GTGGCCAACC	1.02 ± 0.0022
GTGGCGGGAG	0.997 ± 0.017
GTGGCGGTTT	0.995 ± 0.044
GTGGCGTAGA	1.02 ± 0.012
GTGGCGTGCT	0.976 ± 0.045
GTGGCTCAGG	1.05 ± 0.054
GTGGCTGGG	0.988 ± 0.038
GTGGGAAGTC	0.965 ± 0.04
GTGGGAAGTG	0.975 ± 0.025
GTGGGACATA	0.999 ± 0.044
GTGGGATGAT	0.9663 ± 0.0078
GTGGGATTGC	0.9959 ± 0.0067
GTGGGCCGCG	0.979 ± 0.029
GTGGGCGATT	1.01 ± 0.024
GTGGGGCGCC	1.01 ± 0.03
GTGGGGGTGC	0.987 ± 0.033
GTGGGGTAAA	1.01 ± 0.055
GTGGGGTACT	0.9612 ± 0.0055

Sequence	switch fluorescence ratio
GTGGGGTTGC	0.984 ± 0.021
GTGGGTAACT	0.998 ± 0.041
GTGGGTACGG	1 ± 0.028
GTGGGTATTG	1 ± 0.02
GTGGGTCATA	0.953 ± 0.099
GTGGGTCCTA	0.9891 ± 0.0013
GTGGGTCGGG	1.006 ± 0.0049
GTGGGTTCGC	1 ± 0.043
GTGGGTTGGC	1.03 ± 0.043
GTGGGTTGTA	1.01 ± 0.05
GTGGTAACTT	1.007 ± 0.0082
GTGGTAAGCT	1.02 ± 0.049
GTGGTACACG	1.01 ± 0.026
GTGGTACGTG	1 ± 0.064
GTGGTAGGGC	1.021 ± 0.001
GTGGTAGTGG	0.949 ± 0.023
GTGGTCCGGG	0.979 ± 0.037
GTGGTCCGTG	0.962 ± 0.0097
GTGGTCGTGC	0.9761 ± 0.0041
GTGGTGAGGC	1.001 ± 0.0055
GTGGTGAGTG	0.97 ± 0.021
GTGGTGGCTG	0.976 ± 0.048
GTGGTGGGTC	0.975 ± 0.026
GTGGTGGGTG	1 ± 0.091
GTGGTTAAGA	0.9961 ± 0.002

Sequence	switch fluorescence ratio
GTGGTTCTGA	1.03 ± 0.024
GTGGTTCTGG	1.01 ± 0.018
GTGGTTGCGG	0.987 ± 0.04
GTGGTTTGGT	0.979 ± 0.035
GTGGTTTGTG	1 ± 0.011
GTGTAACGTT	1 ± 0.042
GTGTAAGTAG	0.997 ± 0.024
GTGTACCCGT	0.96 ± 0.035
GTGTACGGTG	1.01 ± 0.013
GTGTAGGCTT	1 ± 0.015
GTGTAGGGGT	0.9779 ± 0.0083
GTGTATATAC	0.993 ± 0.013
GTGTATGCAA	1.03 ± 0.029
GTGTATGGGG	0.968 ± 0.063
GTGTATGTTG	0.9976 ± 0.0067
GTGTATTGGG	0.993 ± 0.025
GTGTCATTTT	0.991 ± 0.025
GTGTCCACAG	1 ± 0.014
GTGTCTCCAG	1.03 ± 0.049
GTGTGAAATC	0.987 ± 0.043
GTGTGAAGGT	0.991 ± 0.032
GTGTGACAGA	1.01 ± 0.014
GTGTGACTTC	0.988 ± 0.018
GTGTGATGTG	0.9681 ± 0.0051
GTGTGCAGGG	0.945 ± 0.031

Sequence	switch fluorescence ratio
GTGTGCCAGC	0.969 ± 0.013
GTGTGCCGGG	0.97 ± 0.0043
GTGTGCCTGG	0.985 ± 0.055
GTGTGCTGCA	1.03 ± 0.092
GTGTGTAATT	1.01 ± 0.059
GTGTGTTCTT	1.014 ± 0.008
GTGTTAACCT	1.25 ± 0.045
GTGTTAACGG	0.982 ± 0.017
GTGTTAGAAG	0.9749 ± 0.0015
GTGTTAGCGA	0.997 ± 0.045
GTGTTAGTAC	0.984 ± 0.056
GTGTTATAGT	0.993 ± 0.024
GTGTTATCGG	1 ± 0.045
GTGTTATTTA	0.977 ± 0.046
GTGTTCCGTG	1.01 ± 0.015
GTGTTCGGTA	0.9704 ± 0.0062
GTGTTGAACG	1.04 ± 0.071
GTGTTGAGGC	0.974 ± 0.05
GTGTTGAGGT	0.984 ± 0.022
GTGTTTACGA	0.984 ± 0.027
GTGTTTACTT	1.01 ± 0.021
GTGTTTATGA	1.06 ± 0.053
GTGTTTCTAT	1 ± 0.013
GTGTTTGTGG	0.966 ± 0.033
GTGTTTGTGT	0.983 ± 0.028

Sequence	switch fluorescence ratio
GTGTTTGTTG	0.989 ± 0.029
GTGTTTTAGC	1.009 ± 0.0098
GTGTTTTCAG	0.988 ± 0.03
GTGTTTTCCA	0.985 ± 0.036
GTGTTTTGAA	1.01 ± 0.022
GTGTTTTTGG	0.983 ± 0.022
GTTAAAAAAT	1.06 ± 0.17
GTTAAAGATT	1.001 ± 0.0083
GTTAAAGCAT	1.01 ± 0.03
GTTAAAGGGC	1.03 ± 0.034
GTTAAGGGGC	0.996 ± 0.017
GTTAATGGGG	0.986 ± 0.054
GTTACATGTT	0.993 ± 0.024
GTTACCAGGT	1.16 ± 0.097
GTTACGGGGT	0.975 ± 0.024
GTTACTATTT	1.01 ± 0.019
GTTACTCTGA	1.055 ± 0.0083
GTTACTGTGG	0.9663 ± 0.005
GTTACTTGAG	0.9985 ± 0.005
GTTAGAATGG	0.981 ± 0.017
GTTAGCCGAA	1.05 ± 0.032
GTTAGCGAAG	1 ± 0.019
GTTAGGAGAA	0.9807 ± 0.0092
GTTAGGGCGT	1.01 ± 0.011
GTTAGGGGG	1.02 ± 0.023
